From publication PMC2770089

Molecular target: Tat translocon (TatABC) in inverted membrane vesicles (E. coli) (UniProt P69428)
Experiment: co-sedimentation

Chain of Tat translocon (TatABC) in inverted membrane vesicles (E. coli) (P69428 whole entry, chain 1 of 3): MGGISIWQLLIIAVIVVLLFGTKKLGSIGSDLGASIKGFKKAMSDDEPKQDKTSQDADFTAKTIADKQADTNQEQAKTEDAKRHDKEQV
Chain of Tat translocon (TatABC) in inverted membrane vesicles (E. coli) (P69425 whole entry, chain 2 of 3, further chain): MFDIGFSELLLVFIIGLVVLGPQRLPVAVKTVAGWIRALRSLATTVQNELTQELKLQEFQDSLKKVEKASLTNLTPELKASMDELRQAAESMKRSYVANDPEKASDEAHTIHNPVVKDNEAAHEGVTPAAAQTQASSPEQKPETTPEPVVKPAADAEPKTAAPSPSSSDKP
Chain of Tat translocon (TatABC) in inverted membrane vesicles (E. coli) (P69423 whole entry, chain 3 of 3, further chain): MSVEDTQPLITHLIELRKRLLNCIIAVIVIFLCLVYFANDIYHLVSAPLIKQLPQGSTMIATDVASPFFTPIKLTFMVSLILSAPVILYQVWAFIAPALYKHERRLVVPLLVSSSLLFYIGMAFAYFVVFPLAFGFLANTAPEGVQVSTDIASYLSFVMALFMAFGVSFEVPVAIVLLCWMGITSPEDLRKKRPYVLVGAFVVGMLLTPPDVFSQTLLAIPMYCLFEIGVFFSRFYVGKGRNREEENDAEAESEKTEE

percent decrease of precursor bound to the Tat machinery from 0.05 to 1 M KCl [%] | percent inhibition of translocon binding by 1 M urea [%] | amount bound to the Tat machinery (8.3 pmol added) [pmol] | amount of precursor added at which translocon binding saturates [pmol] | Substance
35 | 75 | – | – | pre-SufI (from UniProt P26648 28-470) (natural protein)
– | – | 0.5 | 4 | spTorA-GFP
